Assay results reported in patent publication US8163873.
Values belong to the substance of their own block, whether it stands above or below them.

Experiments:
[1] = biological target: affinity-purified normal human tau (human) (UniProt P10636); test: sandwich ELISA, normal tau at 10 ng/ml, fixed concentration of AT8
[2] = biological target: purified abnormally phosphorylated tau, mixed with affinity-purified normal tau (human) (UniProt P10636); test: competition ELISA on captured tau mixture; unlabeled AT8 at 1 µg/ml, competitor biotinylated BT2 (its signal is read)
[3] = biological target: purified abnormally phosphorylated tau, mixed with affinity-purified normal tau (human) (UniProt P10636); test: competition ELISA on captured tau mixture; unlabeled AT8 at 333 ng/ml, competitor biotinylated BT2 (its signal is read)
[4] = biological target: purified abnormally phosphorylated tau, mixed with affinity-purified normal tau (human) (UniProt P10636); test: competition ELISA on captured tau mixture; signal of biotinylated AT8 with casein control, no competing antibody (row 1 µg/ml)
[5] = biological target: PHF-tau (abnormally phosphorylated human tau, 64 and 68 kDa forms, from Alzheimer brain) (human) (UniProt P10636); test: sandwich ELISA, PHF-tau diluted 1/200, fixed concentration of AT8
[6] = biological target: PHF-tau (abnormally phosphorylated human tau, 64 and 68 kDa forms, from Alzheimer brain) (human) (UniProt P10636); test: sandwich ELISA, PHF-tau diluted 1/2000, fixed concentration of AT8
[7] = biological target: purified abnormally phosphorylated tau, mixed with affinity-purified normal tau (human) (UniProt P10636); test: competition ELISA on captured tau mixture; unlabeled AT8 at 333 ng/ml, competitor biotinylated AT8 (its signal is read)
[8] = biological target: purified abnormally phosphorylated tau, mixed with affinity-purified normal tau (human) (UniProt P10636); test: competition ELISA on captured tau mixture; signal of biotinylated AT8 with casein control, no competing antibody (row 111 ng/ml)
[9] = biological target: purified abnormally phosphorylated tau, mixed with affinity-purified normal tau (human) (UniProt P10636); test: competition ELISA on captured tau mixture; signal of biotinylated AT8 with casein control, no competing antibody (row 9 µg/ml)
[10] = biological target: purified abnormally phosphorylated tau, mixed with affinity-purified normal tau (human) (UniProt P10636); test: competition ELISA on captured tau mixture; signal of biotinylated AT8 with casein control, no competing antibody (row 333 ng/ml)
[11] = biological target: PHF-tau (abnormally phosphorylated human tau, 64 and 68 kDa forms, from Alzheimer brain) (human) (UniProt P10636); test: sandwich ELISA, PHF-tau diluted 1/20, fixed concentration of AT8
[12] = biological target: affinity-purified normal human tau (human) (UniProt P10636); test: sandwich ELISA, normal tau at 100 ng/ml, fixed concentration of AT8
[13] = biological target: purified abnormally phosphorylated tau, mixed with affinity-purified normal tau (human) (UniProt P10636); test: competition ELISA on captured tau mixture; unlabeled AT8 at 9 µg/ml, competitor biotinylated AT8 (its signal is read)
[14] = biological target: purified abnormally phosphorylated tau, mixed with affinity-purified normal tau (human) (UniProt P10636); test: competition ELISA on captured tau mixture; unlabeled AT8 at 37 ng/ml, competitor biotinylated AT8 (its signal is read)
[15] = biological target: purified abnormally phosphorylated tau, mixed with affinity-purified normal tau (human) (UniProt P10636); test: competition ELISA on captured tau mixture; unlabeled AT8 at 37 ng/ml, competitor biotinylated BT2 (its signal is read)
[16] = biological target: purified abnormally phosphorylated tau, mixed with affinity-purified normal tau (human) (UniProt P10636); test: competition ELISA on captured tau mixture; unlabeled AT8 at 111 ng/ml, competitor biotinylated BT2 (its signal is read)
[17] = biological target: purified abnormally phosphorylated tau, mixed with affinity-purified normal tau (human) (UniProt P10636); test: competition ELISA on captured tau mixture; unlabeled AT8 at 9 µg/ml, competitor biotinylated BT2 (its signal is read)
[18] = biological target: purified abnormally phosphorylated tau, mixed with affinity-purified normal tau (human) (UniProt P10636); test: competition ELISA on captured tau mixture; unlabeled AT8 at 3 µg/ml, competitor biotinylated AT8 (its signal is read)
[19] = biological target: purified abnormally phosphorylated tau, mixed with affinity-purified normal tau (human) (UniProt P10636); test: competition ELISA on captured tau mixture; signal of biotinylated AT8 with casein control, no competing antibody (row 37 ng/ml)
[20] = biological target: purified abnormally phosphorylated tau, mixed with affinity-purified normal tau (human) (UniProt P10636); test: competition ELISA on captured tau mixture; unlabeled AT8 at 3 µg/ml, competitor biotinylated BT2 (its signal is read)
[21] = biological target: purified abnormally phosphorylated tau, mixed with affinity-purified normal tau (human) (UniProt P10636); test: competition ELISA on captured tau mixture; signal of biotinylated AT8 with casein control, no competing antibody (row 3 µg/ml)
[22] = biological target: affinity-purified normal human tau (human) (UniProt P10636); test: sandwich ELISA, normal tau at 1 µg/ml, fixed concentration of AT8
[23] = biological target: purified abnormally phosphorylated tau, mixed with affinity-purified normal tau (human) (UniProt P10636); test: competition ELISA on captured tau mixture; unlabeled AT8 at 1 µg/ml, competitor biotinylated AT8 (its signal is read)
[24] = biological target: purified abnormally phosphorylated tau, mixed with affinity-purified normal tau (human) (UniProt P10636); test: competition ELISA on captured tau mixture; unlabeled AT8 at 111 ng/ml, competitor biotinylated AT8 (its signal is read)
[25] = biological target: purified abnormally phosphorylated tau, mixed with affinity-purified normal tau (human) (UniProt P10636); test: competition ELISA on captured tau mixture; unlabeled BT2 at 111 ng/ml, competitor biotinylated BT2 (its signal is read)
[26] = biological target: purified abnormally phosphorylated tau, mixed with affinity-purified normal tau (human) (UniProt P10636); test: competition ELISA on captured tau mixture; unlabeled BT2 at 111 ng/ml, competitor biotinylated AT8 (its signal is read)
[27] = biological target: purified abnormally phosphorylated tau, mixed with affinity-purified normal tau (human) (UniProt P10636); test: competition ELISA on captured tau mixture; unlabeled BT2 at 9 µg/ml, competitor biotinylated AT8 (its signal is read)
[28] = biological target: purified abnormally phosphorylated tau, mixed with affinity-purified normal tau (human) (UniProt P10636); test: competition ELISA on captured tau mixture; unlabeled BT2 at 37 ng/ml, competitor biotinylated AT8 (its signal is read)
[29] = biological target: purified abnormally phosphorylated tau, mixed with affinity-purified normal tau (human) (UniProt P10636); test: competition ELISA on captured tau mixture; signal of biotinylated BT2 with casein control, no competing antibody (row 333 ng/ml)
[30] = biological target: purified abnormally phosphorylated tau, mixed with affinity-purified normal tau (human) (UniProt P10636); test: competition ELISA on captured tau mixture; unlabeled BT2 at 1 µg/ml, competitor biotinylated BT2 (its signal is read)
[31] = biological target: purified abnormally phosphorylated tau, mixed with affinity-purified normal tau (human) (UniProt P10636); test: competition ELISA on captured tau mixture; signal of biotinylated BT2 with casein control, no competing antibody (row 3 µg/ml)
[32] = biological target: purified abnormally phosphorylated tau, mixed with affinity-purified normal tau (human) (UniProt P10636); test: competition ELISA on captured tau mixture; unlabeled BT2 at 1 µg/ml, competitor biotinylated AT8 (its signal is read)
[33] = biological target: purified abnormally phosphorylated tau, mixed with affinity-purified normal tau (human) (UniProt P10636); test: competition ELISA on captured tau mixture; signal of biotinylated BT2 with casein control, no competing antibody (row 37 ng/ml)
[34] = biological target: purified abnormally phosphorylated tau, mixed with affinity-purified normal tau (human) (UniProt P10636); test: competition ELISA on captured tau mixture; unlabeled BT2 at 3 µg/ml, competitor biotinylated BT2 (its signal is read)
[35] = biological target: purified abnormally phosphorylated tau, mixed with affinity-purified normal tau (human) (UniProt P10636); test: competition ELISA on captured tau mixture; unlabeled BT2 at 333 ng/ml, competitor biotinylated AT8 (its signal is read)
[36] = biological target: purified abnormally phosphorylated tau, mixed with affinity-purified normal tau (human) (UniProt P10636); test: competition ELISA on captured tau mixture; unlabeled BT2 at 333 ng/ml, competitor biotinylated BT2 (its signal is read)
[37] = biological target: purified abnormally phosphorylated tau, mixed with affinity-purified normal tau (human) (UniProt P10636); test: competition ELISA on captured tau mixture; signal of biotinylated BT2 with casein control, no competing antibody (row 1 µg/ml)
[38] = biological target: purified abnormally phosphorylated tau, mixed with affinity-purified normal tau (human) (UniProt P10636); test: competition ELISA on captured tau mixture; signal of biotinylated BT2 with casein control, no competing antibody (row 9 µg/ml)
[39] = biological target: purified abnormally phosphorylated tau, mixed with affinity-purified normal tau (human) (UniProt P10636); test: competition ELISA on captured tau mixture; unlabeled BT2 at 37 ng/ml, competitor biotinylated BT2 (its signal is read)
[40] = biological target: purified abnormally phosphorylated tau, mixed with affinity-purified normal tau (human) (UniProt P10636); test: competition ELISA on captured tau mixture; unlabeled BT2 at 9 µg/ml, competitor biotinylated BT2 (its signal is read)
[41] = biological target: purified abnormally phosphorylated tau, mixed with affinity-purified normal tau (human) (UniProt P10636); test: competition ELISA on captured tau mixture; unlabeled BT2 at 3 µg/ml, competitor biotinylated AT8 (its signal is read)
[42] = biological target: purified abnormally phosphorylated tau, mixed with affinity-purified normal tau (human) (UniProt P10636); test: competition ELISA on captured tau mixture; signal of biotinylated BT2 with casein control, no competing antibody (row 111 ng/ml)

- A150 nm [1]: 0.001 A150 nm
- absorbance at 450 nm [2]: 0.368 A450
- absorbance at 450 nm [3]: 0.369 A450
- absorbance at 450 nm [4]: 0.548 A450
- A150 nm [5]: 1.18 A150 nm
- A150 nm [6]: 0.565 A150 nm
- absorbance at 450 nm [7]: 0.093 A450
- absorbance at 450 nm [8]: 0.576 A450
- absorbance at 450 nm [9]: 0.578 A450
- absorbance at 450 nm [10]: 0.564 A450
- A150 nm [11]: 1.46 A150 nm
- A150 nm [12]: 0.005 A150 nm
- absorbance at 450 nm [13]: 0.056 A450
- absorbance at 450 nm [14]: 0.282 A450
- absorbance at 450 nm [15]: 0.36 A450
- absorbance at 450 nm [16]: 0.381 A450
- absorbance at 450 nm [17]: 0.369 A450
- absorbance at 450 nm [18]: 0.054 A450
- absorbance at 450 nm [19]: 0.568 A450
- absorbance at 450 nm [20]: 0.375 A450
- absorbance at 450 nm [21]: 0.573 A450
- A150 nm [22]: 0.021 A150 nm
- absorbance at 450 nm [23]: 0.059 A450
- absorbance at 450 nm [24]: 0.155 A450
Substance: monoclonal antibody AT8

- absorbance at 450 nm [25]: 0.245 A450
- absorbance at 450 nm [26]: 0.573 A450
- absorbance at 450 nm [27]: 0.548 A450
- absorbance at 450 nm [28]: 0.549 A450
- absorbance at 450 nm [29]: 0.381 A450
- absorbance at 450 nm [30]: 0.122 A450
- absorbance at 450 nm [31]: 0.39 A450
- absorbance at 450 nm [32]: 0.55 A450
- absorbance at 450 nm [33]: 0.395 A450
- absorbance at 450 nm [34]: 0.088 A450
- absorbance at 450 nm [35]: 0.556 A450
- absorbance at 450 nm [36]: 0.179 A450
- absorbance at 450 nm [37]: 0.375 A450
- absorbance at 450 nm [38]: 0.369 A450
- absorbance at 450 nm [39]: 0.318 A450
- absorbance at 450 nm [40]: 0.071 A450
- absorbance at 450 nm [41]: 0.557 A450
- absorbance at 450 nm [42]: 0.385 A450
Substance: monoclonal antibody BT2
